Test results taken from paper PMC11258689, “A Snake Venom Peptide and Its Derivatives Prevent Aβ42 Aggregation and Eliminate Toxic Aβ42 Aggregates In Vitro” (ACS Chemical Neuroscience, 2024).
No end group written: not given here.

How the values were obtained:
Conditions in all cases: both partners purified
[1] = target: T1, amyloid-β (1–42) (UniProt P05067 672-713); assay: SPR; Biacore T200; Aβ42 immobilised on a CM-5 chip by amine coupling (900 RU); peptides as analytes 50 to 0.02 μM; 10 mM HEPES + 50 mM NaCl + 0.05% Tween 20, 25 °C, 30 μL/min; multicycle; steady-state affinity model
T1 construct: also called Aβ42; Aβ (1–42); source: bought: Bachem (Bubendorf, Switzerland); suspended in HFIP, lyophilized

[2] = target: T1, amyloid-β (1–42); assay: as above; remark: listed apart in the source
[3] = target: T1, amyloid-β (1–42); assay: SPR; Biacore T200; CDP-1 immobilised by amine coupling (1916.5 RU); Aβ42 as analyte 1.85 to 0.02 μM; 10 mM HEPES + 50 mM NaCl + 0.05% Tween 20, 25 °C; multicycle; methods: 1:1 kinetic fit with global Rmax (the table's head says steady-state fitting)

B1: crotamine derivative peptide CDP-6 (peptide)
peptide: Ac-KMDSRWRWKCSKK
modifications: not fully specified (C-terminus); also: methylated at the C-terminus
notes: positions worked out from Lys27–Lys39; […]; L-amino acids; source: synthetic peptide (Genscript, purity >95%)
Binder B1 has a Kd [1] of 26.4 µM.

B2: crotamine derivative peptide CDP-2 (peptide)
peptide: Ac-KMDSRWRWKSSKK
modifications: not fully specified (C-terminus); also: methylated at the C-terminus
notes: […]; L-amino acids; source: synthetic peptide (Genscript, purity >95%)
Work on B2 yielded a Kd [2] of 3.25 µM.

B3: crotamine derivative peptide CDP-1 (peptide)
peptide: KMDCRWRWKCCKK
modifications: acetylated at the N-terminus; methylated at the C-terminus
notes: crotamine of Crotalus durissus terrificus venom, Lys27 to Lys39; […]; L-amino acids; For SPR this peptide was immobilised by amine coupling (1916.5 RU); also called crotamine (Lys27–Lys39); mother L-peptide CDP-1; source: synthetic peptide (Genscript, purity >95%)
In the case of B3, the Kd [3] is reported as 410 nM.
